{"source": "FireProtDB (doi:10.1002/pro.343)", "parents": {"B1": {"name": "Multidrug resistance operon repressor, P52003 (parent)", "chain": "MNYPVNPDLMPALMAVFQHVRTRIQSELDCQRLDLTPPDVHVLKLIDEQRGLNLQDLGRQMCRDKALITRKIRELEGRNLVRRERNPSDQRSFQLFLTDEGLAIHQHAEAIMSRVHDELFAPLTPVEQATLVHLLDQCLAAQPLEDI"}}, "data": [{"variants_of": "B1", "conditions": "Pseudomonas aeruginosa (strain ATCC 15692 / DSM 22644 / CIP 104116 / JCM 14847 / LMG 12228 / 1C / PRS 101 / PAO1); pH 7.2; Thermal; CD; Sodium phosphate 10 mM; structure 1LNW; whole UniProt chain shown", "units": {"Tm": "°C"}, "values": [{"variant": "MNYPVNPDLMPAMMAVFQHVRTRIQSELDCQRLDLTPPDVHVLKLIDEQRGLNLQDLGRQMCRDKALITRKIRELEGRNLVRRERNPSDQRSFQLFLTDEGLAIHQHAEAIMSRVHDELFAPLTPVEQATLVHLLDQCLAAQPLEDI", "note": "[L13M]", "Tm": 47.8}]}, {"variants_of": "B1", "conditions": "Pseudomonas aeruginosa (strain ATCC 15692 / DSM 22644 / CIP 104116 / JCM 14847 / LMG 12228 / 1C / PRS 101 / PAO1); pH 7.2; 22 °C; GdnHCl; CD; Sodium phosphate 10 mM; transition: 3; structure 1LNW; whole UniProt chain shown", "units": {"denaturant midpoint (higher = more stable)": "M"}, "values": [{"variant": "MNYPVNPDLMPALMAVFQHVWTRIQSELDCQRLDLTPPDVHVLKLIDEQRGLNLQDLGRQMCRDKALITRKIRELEGRNLVRRERNPSDQRSFQLFLTDEGLAIHQHAEAIMSRVHDELFAPLTPVEQATLVHLLDQCLAAQPLEDI", "note": "[R21W]", "denaturant midpoint (higher = more stable)": 2.6}]}]}
